According to patent publication US5733879A, “Peptides and proteins, process for their preparation and their use as cholesterol acceptors” (N.V. Innogenetics, S.A., priority 1992, dated 1998):
Where “and” joins values, the source holds several entries; their conditions need not be identical. Equal values may be shown once. Where no end group is shown, it is not given here.

Legend:
[1] = Percentage of alpha-helix structure by circular dichroism; type: physicochemical; settings: for percentage of alpha-helix structure, peptide, CD: free peptide; for percentage of alpha-helix structure, DMPC/peptide, CD: phospholipid-peptide (DMPC) complex
Method: Table 1: corresponds to the percentage of alpha-helix structure in the free peptide and in the phospholipid-peptide (DMPC) complexes as determined by infrared spectroscopy (IR) and circular dichroism (CD).
Circular dichroism spectra of the peptides and their complexes with lipids were measured on a Jasco 600 spectropolarimeter at 23° C. (Brasscur et at., 1991). Measurements were carried out at a protein concentration of 0.1 mg/ml in a 0.01M sodium phosphate buffer pH 7.4. Nine spectra were collected and averaged for each sample. The secondary structure was estimated according to the generalized inverse method of Compton and Johnson (Compton et at., 1986).

J774 murine macrophages = assay: Cellular cholesterol efflux from lipid-loaded macrophages; type: cell-based; settings: for Vmax (cholesterol efflux): phospholipid-peptide complexes, cholesterol-loaded J774 cells, 24 h; for efflux of free cholesterol into the medium: protein concentration of the complex in the medium 100 μg/ml, 24 h incubation
Method: J774 murine macrophages are grown in DMEM (Gibco) with addition of 10% fetal calf serum (FCS), in a 5% CO2 atmosphere. Cells are seeded in 35 mm dishes at a density of 2×10^6 /dish, grown for 18 h in 2ml DMEM-10% FCS and used as confluent monolayers. After 18 h, the cells are washed twice with DMEM and incubated with acetylated LDL at a concentration of 100 μg apo B/ml for 24 h in a medium consisting of DMEM and 10% lipoprotein deficient serum (LPDS). LPDS is prepared from fetal cell serum (Gibco) by eliminating all lipoproteins by ultracentrifugation. After loading with cholesteryl esters, cell monolayers are washed with DMEM.
The cholesteryl ester-laden cells are incubated in 2 ml DMEM supplemented with 1 g/l bovine serum albumin and containing the Sandoz 58-035 compound at a concentration of 1 μg/ml medium as inhibitor of the acyl-CoA:cholesterol acyl transferase enzyme (ACAT) in order to prevent the re-esterification of the cellular cholesterol (Brown et at., 1980). The cholesterol acceptors, i.e. the discoidal peptide-lecithin complexes were added to the medium at concentrations varying between 10 and 200 μg peptide/ml and cells were incubated for 24 h.
After incubation, cells are washed once with phosphate buffer pH 7.4, 0.15N NaGl (PBS) containing 2 g/l BSA and twice with PBS alone. Lipid extracts are prepared by addition to the cell pellet of 5 ml hexane/isopropylalcohol (3:2) (Phillips et at., 1987). Fifty μl of a cholesteryl heptadecanoate solution in chloroform at a concentration of 500 μg/ml are added as internal standard for the HPLC quantitation of cholesteryl esters. After vortex-mixing for 3 min and centrifugation at 3000 rpm for 15 rain, the organic phase supernatant is dried, the precipitate is dissolved in 1 ml chloroform and washed three times. The dry residue is finally dissolved in 50 μl of a mixture of chloroform:acetonitrile:isopropylalcohol (1:1:1), of which 20 μl are injected into the HPLC system.
The same extraction procedure is applied to 1 ml of the medium. For quantification of the unesterified cholesterol fraction, beta-sitosterol is used as internal standard according to methods known in the art.
After delipidation, cellular proteins were dissolved in 0.1M NaOH and the proteins were assayed either by the method of Lowry (Lowry et al., 1951) or with the bicinchoninic acid (BCA) reagent using a kit for protein assay manufactured by Pierce (Pierce Europe, oud-Beijerland, Holland). In both cases bovine serum albumin was used as a standard.

[2] = Trp fluorescence emission of peptides and complexes; type: physicochemical; settings: for Trp maximal emission wavelength, free: free peptide or protein; for Trp maximal emission wavelength upon phospholipid binding: in the phospholipid complex
Method: The measurement of the Trp fluorescence emission in the peptides and in the complexes was used to monitor complex formation. The fluorescence measurements were performed on an Aminco SPF-500 spectrofluorimeter equipped with a special adapter (Aminco-J4-9501) for the fluorescence polarisation measurements. The fluorescence polarization of the lipid-peptide complexes labelled with diphenyl hexatriene (DPH) (molar ratio of 500:1 lipid:DPH) was measured as a function of the temperature to detect changes in the fluidity of the phospholipid acyl chains due to lipid-peptide association. The excitation wavelength was set at 365 nm and emission was detected at 427 nm. Temperature scans between 15° and 40° C. were performed with a circulating water bath (Julabo) at a rate of 0.6° C./min.

[3] = Composition and gel chromatography of the isolated phospholipid-protein complexes; type: physicochemical; settings: for Composition DPPC/Protein w/w: isolated complex with DPPC, maximum of elution peak
Method: Complexes were obtained by incubation of the peptides with dimyristoylphosphatidylcholine (DMPC, Sigma, St Louis, Mo.) vesicles at a DMPC/peptide, w/w ratio of 3/1 at 25° C. for 16 h. Complexes with dipalmitoylphosphatidylcholine (DPPC) were generated by the cholate dialysis procedure (Vanloo et al., 1991). All complexes were isolated by gel chromatography (FIG. 4) on a Superose PG column in a 0.01M Tris-HCl buffer, pH 8.0, 0.15M NaCl, 1 mM NaN3, 0.1 g/L EDTA. The column was first saturated with the phospholipid to avoid dissociation of the lipid-peptide complexes. The complexes were detected by continuous monitoring of the optical density at 280 nm and by measurement of the Trp emission of the fractions on a Jasco SP500 spectrofluorimeter. The composition and size of the complexes, were determined on the two fractions with maximal UV absorption in the elution peak of the complexes. The composition was determined by quantitation of the phospholipids using an enzymatic assay (Biomerieux, France), and of the peptide by an HPLC phenylalanine assay on a C18 reversed-phase column, after hydrolysis (Vanloo et al., 1991).

[4] = Electron microscopy size measurement of the lipid-peptide complexes; type: physicochemical; settings: complex with DPPC, from electromicrographs
Method: Phospholipid-peptide complexes, at a protein concentration of 150 μg/ml, were negatively stained with a 20 g/l solution of potassium phosphotungstate (pH 7.4). 7 μl of the samples were applied to Formvar carbon-coated grids and examined in a Zeiss EM 10C transmission electron microscope operating at 60 kV. Particle size was determined by measuring 120 discrete particles for each sample. The mean diameter and the size distribution of the complexes were calculated.

[5] = GdmCl denaturation followed by Trp maximal emission wavelength; type: physicochemical; settings: phospholipid (DMPC) complex
Method: The stability of the DMPC-peptide complexes, was compared by following the maximal emission wavelength of the Trp residues after exposure to increasing quantities of GdmCl. For these experiments aliquots of a 8M GdmCl solution were added to the complex in the Tris-HCl buffer described above (see FIG. 3).

Substance | percentage of alpha-helix structure, peptide, CD [1] [%] | percentage of alpha-helix structure, DMPC/peptide, CD [1] [%] | Vmax (cholesterol efflux) (J774 murine macrophages) | Trp maximal emission wavelength, free [2] | Trp maximal emission wavelength upon phospholipid binding [2] [nm] | Composition DPPC/Protein w/w [3] | Diameter MEAN ± SD [4] [Å] | midpoint of the GdmCl denaturation, phospholipid complex [5] | efflux of free cholesterol into the medium (J774 murine macrophages) [µg] | complex size on Superose PG column ([3]; DPPC complexes, cholate dialysis)
EWLKAFYKKVLEKLKELF [M1] | 20 | 46 | 111 μg cholesterol released from t | 341 nm | 335 | 3/1 | 209 ± 33 | 4 M |  | 
EWLKAEYEKVLEKLKELF [M2] | 30 | 46 | 48 μg cholesterol released from t | 353 nm | 342 | 2/1 | 173 ± 45 | 3 M |  | 
EWLEAFYKKVLEKLKELF [M4] | 50 | 65 | 50 μg cholesterol released from t |  |  | 3/1 | 150 ± 25 | 2.5 M | 20 | 
apo AI: native plasma apo AI purified from human plasma; major apoprotein constituent of HDL | 29 | 47 | 52 μg cholesterol released from t | 333 nm and 338 nm | 329 | 2/1 | 128 ± 22 | 2.5 M | ~8 | 
EWLKAEYEKVEEKLKELF [M3] |  |  | 77 μg cholesterol released from t |  |  | 4/1 | 175 ± 55 | immediately |  | much larger
